The test addresses F-actin (rabbit skeletal muscle actin filaments) (rabbit) (UniProt P68135). Briefly: co-sedimentation.

As a reminder, the Kd is the constant that tells how readily two partners part at equilibrium.

Turning to “29-kD NH2-terminal fragment of synapsin I (domain or fragment)”, the initial Kd (bivalent cooperativity model) amounted to 168000 nM.

“40-kD NH2-terminal/middle fragment of synapsin I (domain or fragment)” gave a dissociation constant (Kd) of 1300 nM.

“dephosphorylated 51/54-kD middle/tail fragment of synapsin I (domain or fragment)” gave an equilibrium dissociation constant (Kd) of 600 nM.

For “phosphorylated 51/54-kD middle/tail fragment of synapsin I (domain or fragment)”, the Kd stood at 1700 nM. This Kd lies about 2.8-fold higher than the previous one.

(Values after paper PMC2115537.)
